pKd: −log10 of the molar value.
System: His:paALKBH5-like (Gypsy_Pa_2799 ORF2) (Phalaenopsis aphrodite)
Assay: EMSA
Conditions: EMSA: 10 mM Tris-HCl pH 8.0, 100 mM NaCl, 50% glycerol, 1 U RiboLock, 30 min at 4 C; Northwestern: 10 mM Tris-HCl pH 7.5, 1 mM EDTA, 0.1 M NaCl, 0.05% Triton …

Substance: AMV RNA 3 5'UTR transcript
- pKd: 6.68
